Measurements published in article PMC7367873, “Dissecting the sequence determinants for dephosphorylation by the catalytic subunits of phosphatases PP1 and PP2A” (Nature Communications, 2020).

Target: T1, PP1c (Homo sapiens, UniProt P62136)
T1 construct: His tag with TEV site (N, cleaved yes); intein (pTXB1) (C, cleaved yes); made in house; host or cells: E. coli BL21Star(DE3)pRARE
Experiment: Phosphoproteome dephosphorylation assay of HeLa Kyoto lysate with recombinant PP1c (TMT phosphoproteomics)
Format: biochemical
Conditions: 1 µM recombinant phosphatase, 1 h at 30 °C, 20 nM Calyculin A, three replicates
Protocol: For phosphoproteomics, HeLa Kyoto cells were incubated with 20 nM Calyculin A (CST, #9902) for 10–15 min. This time point was determined empirically to yield maximal phosphatase inhibition without cells showing pleiotropic effects. Subsequently, cells were placed on ice and washed twice with cold PBS and scraped in lysis buffer (100 mM NaCl, 10 mM Tris, 0.1% IGEPAL, 1 mM EDTA, 1 mM EGTA, 20 nM Calyculin A, 1x cOmplete Mini protease inhibitor cocktail (Sigma), 1 mM DTT, 1 mM MnCl2, pH 7.5). After 10 pushes through an injection needle (21 G, BD), lysate was cleared from the insoluble fraction by centrifugation (10 min, 10^4 rcf, 4 °C). Protein concentration was then determined by a Bradford Assay and equal amounts of 1 mg total protein were incubated with recombinant PP1c/PP2Ac or buffer at a final phosphatase concentration of 1 µM in a total volume of 200 µL for 1 h at 30 °C. Lysates were then immediately placed on ice. PhosStop […] (Roche) was added and proteins were denatured by adding urea to a final concentration of 8 M taking into account the volume increase. Samples were then snap-frozen in liquid nitrogen for storage and subsequent MS analysis.
Treated lysates were reduced (10 mM DTT, 30 °C, 30 min) and alkylated (50 mM chloroacetamide, room temperature, 30 min, in the dark), and then diluted to 1.3 M urea using 40 mM Tris-HCl (pH 7.6). […]

T1 sequence (P62136 whole entry): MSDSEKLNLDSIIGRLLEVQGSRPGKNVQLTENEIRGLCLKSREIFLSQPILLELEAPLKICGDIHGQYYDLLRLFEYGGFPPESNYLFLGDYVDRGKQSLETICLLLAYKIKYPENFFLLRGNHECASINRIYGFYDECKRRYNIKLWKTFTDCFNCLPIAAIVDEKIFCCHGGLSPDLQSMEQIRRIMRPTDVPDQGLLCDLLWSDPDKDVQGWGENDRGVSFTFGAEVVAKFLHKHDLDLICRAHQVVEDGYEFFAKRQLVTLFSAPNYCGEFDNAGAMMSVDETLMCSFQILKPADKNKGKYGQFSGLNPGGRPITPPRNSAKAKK

- number of class I p-sites dephosphorylated by PP1: 1967 p-sites
Substance: PP1c: recombinant catalytic subunit of PP1
